In article PMC4861830, “Isolation and Characterization of Three New Monoterpene Synthases from Artemisia annua” (Frontiers in Plant Science, 2016) one finds Km, kcat and kcat/Km data, which are given here for three proteins.

Substrate in the data set: CC(C)=CCC/C(C)=C/COP(=O)(O)OP(=O)(O)O
Put plainly: purified protein. The class given is biochemical, Artemisia annua. The settings on record: Mg2+ (5 mM MgCl2), 25 mM HEPES pH 7.0, 5 mM DTT, 30 °C, GPP 3-100 μM.

[1] abbreviates: Table 1 prints 19.74 (text and table disagree; printed kcat/Km 7.66 × 10^4 fits 19.47).

B1: AaTPS2 (Artemisia annua) (protein)
chain: VRRTANYEPTLWSYDHIQSLSSKYTGEEYAARANILKNSVKRLLGEVENSPSILELVNDLQRLGIYYHFEDEIRNALEMIYYKYYKTPDKWGKMDLNLTALGFRLLRQHGYQVPQEIFQNFLDNAQNLKPHLLEEIAGMLNLYEASYHAFEDETILDNARAFTTKYLKENLDKIDGHILSLVSHALEFPLHWRVPRVEAKWYIEVYEKKNGMNHILIELAKLDFDMVQAIHLEDLKHASRWWRNTNWDKKLSFARDRLVENFLWTIGFNYLPQFSHGRRTLTKVNALITTIDDVYDVFGTLDEIEQFTDATNRWDINSIEELPDYMKICFLGFYNTINEITYNALTNKRFIILPYLKKAWGDLFKSFVVEANWYQSGHIPTLEEYLENGCISISGPVILMHVHFITSISSAEEIMQCMEISKDIVRYSSLIFRLTDDLGTSSGEMERGDNPKSLQCYMHETGASEDEARIYMKSLIGETWKKLNKERTHASSDITREFIDFATNLVRMAQFMYGEGDVHGRPDVTKSHVLSLLFNPIQEI
notes: N-terminal 46-residue plastid signal peptide removed (before RR motif; full length 586 residues); pET-32a fusion tag kept; E. coli BL21(DE3); Ni-NTA
With B1, the Michaelis constant (Km) turned out to be 8.25 µM, the kcat turned out to be 0.52 s⁻¹ and the kcat/Km is 63100 M⁻¹ s⁻¹.

B2: AaTPS6 (Artemisia annua) (protein)
chain: GRRSANYEPSLWSFDHVQSLSSKYTGKNYVSRADSLKKIVKTMIHEVGNPSTALELVDDLQRLGIWYHFEDEISNVLEMIYRDFYDNEDRCSKMDMNFKALSFRLLRQHGYHVPQEIFHNFKEKTQNLKPYLHEDMVVMLNIYEASYYSYEDESIMDDARDFTAKYLKENHDSIDESISSLVSHALEFPLHWRIPREEAKWFIEFYEKRSGRNPTLIELAKLDFNMVQSIHLEDLKHASRWWRNTCWDKELPFARDRLMENFLWTVGVNYLPRFSLGRRTLTKVNAMITTIDDVYDVFGTIDELEKFTEVTNRWDINAVEELPDYMQICFIAFYNSINEIAYNTLTDTKFLILQYLKKGWVDLCNSYLKEAQWYESGYVPTLEEYLENAYVSISAPVILTHVNFLTTITSKEEILQFMETSDNIVRYSSLILRLADDLGTSSLEMARGDVPKSIQCYMHESGASEDEARMHIKDLILETWKKFNKEREHVKSKIAREFTYCAMNLGRMAQFMYREGDGHGHLSDVTKSHVLSWLINPIQGM
notes: N-terminal 46-residue plastid signal peptide removed (before RR motif; full length 587 residues); pET-32a fusion tag kept; E. coli BL21(DE3); Ni-NTA
As for B2, the Km turned out to be 17.70 µM, the kcat was 4.46 s⁻¹ and the kcat/Km is 252000 M⁻¹ s⁻¹.

B3: AaTPS5 (Artemisia annua) (protein)
chain: IRRSAGYPPSLWPYERIQAINSIYTGEKYASRLETLKEEVRNMIYKENEKAENPLSTLNLVDDLQRLGIWYHFVDDINNVLDNVYNKYYKSPEKWNTLDLNLKALGFRLLRHNGYHITQDIFEDIQDETRIMGHTIEDTLGLLNLYEASYHSFEDENILDEARAFTKKYLQGSLGKIDDQYLSSLTSRALDMPLHWRIARVETIWFMEAYEKRSGMNPTVLDLAKLDFNMVQAVHQEDLKYASRWWRTTKWDDKLSFARDRLVENYMWTIGNSYRPQFTLLRRILTKVFAIITTVDDVYDVHGTLDELERFTDVISRWNIYAIEELPDYMKICFLGFYNSVNDMAYTTLTDTGFFILPYLQKAWEDLCKAYLVEARWYHTKYMPTFKEYLDIAEVSISVPLMLTHISFVMNVCSTEEVIQSMDKIKNLIRYSSQILRLADDLGTSSDEMARGDTPKSIQCYMHETGATEEEARAHVRSLIIKVWQKLNKERAGLKTTYLKEFGECAANFGRMAQFMYQVADGHGHNIDLTEAYVLSLVVNPIQGV
notes: N-terminal 57-residue plastid signal peptide removed (before RR motif; full length 602 residues); pET-32a fusion tag kept; E. coli BL21(DE3); Ni-NTA
As for B3, under setting [1], the Michaelis-Menten constant (Km) was found to be 19.47 µM and the turnover number (kcat) came out at 1.49 s⁻¹.
